Measurements: article PMC3334968, “Development of a Tetrameric Streptavidin Mutein with Reversible Biotin Binding Capability: Engineering a Mobile Loop as an Exit Door for Biotin” (PLoS ONE, 2012)

Biological target: the molecule itself
Assay: SDS-PAGE of unboiled samples; oligomeric state in SDS-PAGE, samples not boiled, without biotin, with or without 0.7 M β-mercaptoethanol

B1: 8-aa-loop-H127C mutein (streptavidin) (natural protein, UniProt P22629 25-183, looked up)
chain: DPSKDSKAQVSAAEAGITGTWYNQLGSTFIVTAGADGALTGTYESAVGNAESRYVLTGRYDSAPATDGSGTALGWTVAWKNNYRNAHSATTWSGQYVGGAEARINTQWLLTSGDSSNGSDGSTLVGCDTFTKVKPSAASIDAAKKAGVNNGNPLDAVQQ
modifications: disulfide bond between the Cys-127 residues of adjacent subunits
notes: streptavidin; loop7-8 (residues 114-121) replaced and H127C added; SDS-PAGE was done without biotin; also called MH127C; 8-aa-loop-H127 mutein; source: B. subtilis WB800, secreted, purified from culture supernatant (biotin-agarose)
For B1, the “stoichiometry N” value was 4.
